Reference: patent publication US20140120109A1 (Regeneron, published 2014)
Substitutions are numbered along the chain they refer to. Names and notes keep the numbering of the source.

B1: H4H1818N (antibody, human IgG4 S228P, V domains shown)
VH: RLQLVESGGGLVKPGGSLKLSCAASGFTISDYYMSWIRQAPGKGLEWVSYIGGSGSTIYYADSVKGRFTISRDNAKNSLYLQMNSLRAEDTAVYYCAREDADSYYYYGMDVWGQGTTVTVSS
VL: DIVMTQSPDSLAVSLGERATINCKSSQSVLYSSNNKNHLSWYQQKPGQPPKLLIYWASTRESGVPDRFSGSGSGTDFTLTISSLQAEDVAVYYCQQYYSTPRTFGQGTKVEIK
notes: human IgG4(S108P) form of H2M1818N
B2: H4H1719P (antibody, human IgG4 S228P, V domains shown)
VH: EVQLVESGGGLVQPGRSLRLSCVASGFTFQDYAMHWVRQAPGKGLEWVSGINWISDDMGYADSVMGRFTISRDNAKNSLYLQMDSLRAEDTALYYCAKDKGLRFLDYVMDVWGQGTTVTVSA
VL: DIVMTQSPLSLPVTPGEPASISCRSTQSLLHRNGHNYLHWYLHKPGQSPQLLIHLGSNRASGVPDRFSGSGSGTDFTLKISRVEAEDVGVYYCMQALQTPYTFGQGTKLEIK
B3: H4H1725P (antibody, human IgG4 S228P, V domains shown)
VH: QVQLVQSGAEVKKPGASVKVSCKASGYTFTGYYMHWVRQAPGQGLEWMGWIKPKSGGTNYVQKFQGRVTMTRDTSINTAYMELNNLKSDDTAVYYCATGGSQDASDFWGQGTMVTVSS
VL: DIQMTQSPSSVSASVGGRVTITCRASQDISIWLAWYQQKPGKAPNLLIYAASSLQSGVPSRFSGSGSGTDFTLTISSLQPEDFATYYCQQADSFPLTFGGGTKVEIK
B4: H4H1738P (antibody, human IgG4 S228P, V domains shown)
VH: EVQLVESGGALVKPGGSLRLSCAVSGFTFINDWMNWVRQAPGKGLEWVGRIKSTTDGGTTDDAAPVKGRFTISRDDSKNTLYLQMNSLKTEDTAVYYCTRDRNRQRNYFYDGMDVWGQGTTVTVSA
VL: B2 VL with L9V, T26S, S28R, R32N, H35N, H39D, H43Q, H54Y, I80V
B5: H4H1742P (antibody, human IgG4 S228P, V domains shown)
VH: EVQLVESGGGLVQPGGSLRLSCAASGFTFSNYVMNWVRQAPGKGLEWVSVISGSGGSTHYADSVKGRFTISRDNSKDALYLQMNSLRAEDTAVYYCAKGPLEAYYYYNGMDVWGQGTTVTVSS
VL: DIQLTQSPSFLSASVGDRVTITCWASQAISSYLAWYQHKPGRAPKLLIYSTSTLQSGVPSRFSGSGSGTEFTLTISSLQPEDFATYYCQQLNSYPTFGQGTKLEIK
B6: H4H1745P (antibody, human IgG4 S228P, V domains shown)
VH: EVQLVESGGGLVQPGGSLRLSCAASGFTFSSYAMTWVRQAPGKGLEWVSGVSGRGGSTYYADSVKGRFTISRDNSKNTLYLQMNSLRAEDTAVYYCAYWDISSFDYWGQGTLVTVSS
VL: DIQLTQSPSFLSASVGDRVTITCWASQGISTYLAWYQQKPGKTPKLLIYAASTLQSGVPSRFSGSGSGTDFTLTISSLQPEDFATYYCQQFNSYPLTFGGGTKVEIK
B7: H4H1750P (antibody, human IgG4 S228P, V domains shown)
VH: QVQLVESGGGVVQPGRSLRLSCVASGFTFSNYGMHWVRQAPGKGLEWVAVISYDGNNDLYSDSVKGRFTISRDNAKNALSLQMTSLRAEDTAVYYCARDSTMTPYYYHGIDVWGQGTTVTVSA
VL: DIQMTQSPSSLSASVGDRVTITCRASQDIRNDLGWYQQKPGKAPKRLIYAASSLQSGVPSRFSGSGSGTDFTLTISSLQPEDFATYYCLQHNSYPPTFGQGTKVEIK

Biological target: T1, human TL1A, soluble, CHO-expressed, residues 72-251 of SEQ ID NO:244 with N-terminal His6-tag (human, UniProt O95150 72-251)
T1 construct: also called hTL1A; hTL1A (CHO)
T1 sequence: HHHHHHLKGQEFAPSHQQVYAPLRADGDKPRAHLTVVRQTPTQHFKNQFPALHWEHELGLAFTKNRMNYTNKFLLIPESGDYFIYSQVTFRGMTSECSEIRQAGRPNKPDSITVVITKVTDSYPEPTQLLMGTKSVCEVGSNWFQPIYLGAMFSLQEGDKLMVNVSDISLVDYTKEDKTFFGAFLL
Test: ELISA, blocks hTL1A (10 pM) binding hDcR3-Fc
How it was run: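 Competition sandwich ELISA: biotinylated CHO-expressed ligand (human TL1A, FHM Q167R variant, or cynomolgus TL1A) at fixed concentration preincubated with titrated antibody 1 h at 25 °C, then 1 h on hDR3-Fc or hDcR3-Fc coated wells. Bound ligand detected by streptavidin-HRP/TMB at 450 nm; sigmoidal dose-response fit.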

Row | Binder | IC50 [pM]
1 | B1 | 232
2 | B2 | 44
3 | B3 | 68
4 | B4 | 122
5 | B5 | 181
6 | B6 | 58
7 | B7 | 656

Biological target: T2, rat TL1A, soluble, CHO-expressed, residues 76-252 of SEQ ID NO:258 with N-terminal His6-tag (rat, UniProt Q8K3Y7 76-252)
T2 construct: also called rTL1A; rTL1A (CHO)
T2 sequence: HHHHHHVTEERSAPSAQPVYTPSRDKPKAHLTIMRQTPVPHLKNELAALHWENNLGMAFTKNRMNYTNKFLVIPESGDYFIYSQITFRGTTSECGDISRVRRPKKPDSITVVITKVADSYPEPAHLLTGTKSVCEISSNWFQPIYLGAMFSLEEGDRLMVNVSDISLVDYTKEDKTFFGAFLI
Test: SPR 25C, mAb captured
How it was run: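 Biacore T100 SPR with captured mAb and soluble TL1A/Fhm analyte; ka and kd fitted to a 1:1 model assuming monomeric TL1A. KD = kd/ka; t1/2 (min) = ln2/(60·kd).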

Row | Binder | Kd [pM] | t1/2 [min] | binding result
8 | B1 | 88 | 92 | 
9 | B2 | 364 | 38 | 
10 | B3 | 317 | 26 | 
11 | B4 |  |  | no binding (tested: up to 100 nM)
12 | B5 | 78 | 144 | 
13 | B6 | 2700 | 4 | 
14 | B7 |  |  | no binding (tested: up to 100 nM)

Biological target: T1, human TL1A, soluble, CHO-expressed, …
Test: cell-based or functional assay

Row | Binder | Average % Blocking IFN-g, 3 ug/ml mAb [%]
15 | B1 | 71
16 | B2 | 78
17 | B3 | 94
18 | B4 | 81
19 | B5 | 83
20 | B6 | 91
21 | B7 | 89

Biological target: T3, Fhm, hTL1A(Q167R), soluble, CHO-expressed, residues 72-251 of SEQ ID NO:246 (human, UniProt O95150 72-251)
T3 construct: also called Fhm (CHO); FHM (CHO)
T3 chain: T1 sequence with Q102R
Test: ELISA, blocks FHM (150 pM) binding hDR3-Fc
Protocol: The ability of antibodies to block human TL1A binding to its cognate receptors, the DR3 and DcR3 receptors, was measured using a competition sandwich ELISA. In addition, blocking of a human TL1A variant FHM (human TL1A Q167R) and the cynomolgus monkey (Macaca fascicularis) TL1A (MfTL1A) protein binding to the human DR3 or DcR3 receptors was measured in the same manner. Constant amounts of biotinylated human TL1A or FHM (both expressed with a 6-His tag in CHO cells) or biotinylated MfTL1A (expressed in CHO cells) were separately titrated with varying amounts of antibodies. The antibody-protein complexes were incubated in solution (1 hr, 25° C.) and then transferred to microtiter plates coated with human DR3 (hDR3) or human DcR3 (hDcR3) expressed as human IgG1 Fc fusion proteins. After one hour at 25° C. the wells were washed, and bound human or monkey TL1A was detected with streptavidin conjugated with horseradish peroxidase (HRP). Wells were developed with a TMB solution to produce a colorimetric reaction and quenched with aqueous sulfuric acid before reading absorbance at 450 nm on a Perkin-Elmer Victor X5 plate reader. A sigmoidal dose-response curve was fit to the data using the Prism™ data analysis package. […] Both fully human anti-hTL1A mAbs and comparator antibodies, i.e., control mAb1 (an anti-hTL1A antibody with heavy and light chain variable domains having the amino acid sequences corresponding to SEQ ID NOS:21 and 27, respectively, of US 2009/0280116) and control mAb3 (an anti-hTL1A antibody with heavy and light chain variable domains having the amino acid sequences corresponding to SEQ ID NOS:57 and 48, respectively, of US 2009/0280116), were included in the study. NB: No binding under the conditions tested; NT: Not tested. Concentrations of biotinylated soluble ligands: (1) 150 pM; (2) 500 pM; (3) 10 pM; and (4) 50 pM.

Row | Binder | IC50 [pM]
22 | B1 | 202
23 | B2 | 23
24 | B3 | 18
25 | B4 | 152
26 | B5 | 214
27 | B6 | 44
28 | B7 | 589

Biological target: T4, cynomolgus monkey TL1A, soluble, E. coli-expressed, residues 72-251 of SEQ ID NO:248 (cynomolgus monkey (Macaca fascicularis), UniProt O95150 72-251 (human entry))
T4 chain: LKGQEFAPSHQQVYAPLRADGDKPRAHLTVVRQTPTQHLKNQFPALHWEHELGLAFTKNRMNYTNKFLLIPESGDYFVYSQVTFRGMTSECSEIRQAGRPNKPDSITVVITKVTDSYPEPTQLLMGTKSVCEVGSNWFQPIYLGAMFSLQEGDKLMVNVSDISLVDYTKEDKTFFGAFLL
Test: cell-based or functional assay

Row | Binder | IC50, NFkB-luciferase reporter [pM]
29 | B1 | 60
30 | B2 | 20
31 | B3 | 20
32 | B4 | 70
33 | B5 | 70
34 | B6 | 30
35 | B7 | 32500

Biological target: T1, human TL1A, soluble, CHO-expressed, …
Test: cell-based or functional assay
Remark: another data set of the same source

Row | Binder | IC50, NFkB-luciferase reporter [pM]
36 | B1 | 370
37 | B2 | 60
38 | B3 | 50
39 | B4 | 390
40 | B5 | 310
41 | B6 | 90
42 | B7 | 900

Biological target: T5, cynomolgus monkey TL1A, soluble, CHO-expressed, residues 72-251 of SEQ ID NO:248 with N-terminal His6-tag (cynomolgus monkey (Macaca fascicularis), UniProt O95150 72-251 (human entry))
T5 chain: T1 sequence with F45L, I84V
Test: cell-based or functional assay

Row | Binder | IC50, NFkB-luciferase reporter [pM]
43 | B1 | 130
44 | B2 | 10
45 | B3 | 10
46 | B4 | 390
47 | B5 | 260
48 | B6 | 50
49 | B7 | 155000

Biological target: T6, human TL1A, soluble, E. coli-expressed, residues 72-251 of SEQ ID NO:244 (human, UniProt O95150 72-251)
T6 sequence: T4 chain with L39F, V78I
Test: cell-based or functional assay

Row | Binder | IC50, NFkB-luciferase reporter [pM]
50 | B1 | 290
51 | B2 | 20
52 | B3 | 20
53 | B4 | 160
54 | B5 | 190
55 | B6 | 60
56 | B7 | 2170
